Measured values reported in patent US20070224194A1, “Methods for Inhibiting Angiogenesis and/or Lymphangiogenesis” (LUDWIG INSTITUTE FOR CANCER RESEARCH, priority 2004, published 2007).
Substitutions are numbered along the chain they refer to.

How the values were obtained:
[1] = target: VEGFR-2 (as used in the biosensor analysis) (UniProt P35968); experiment: SPR biosensor, 1:1 Langmuir model; reference VEGF-DSSTS.IISS on the same receptor
[2] = target: VEGFR-3 (as used in the biosensor analysis) (UniProt P35916); experiment: as above
[3] = target: VEGFR-2 (as used in the biosensor analysis) (UniProt P35968); experiment: SPR; settings: ligand
[4] = target: VEGFR-3 (as used in the biosensor analysis) (UniProt P35916); experiment: SPR; settings: ligand
[5] = target: VEGFR-2 (as used in the biosensor analysis) (UniProt P35968); experiment: SPR biosensor, 1:1 Langmuir model; reference VEGF-DSSTS.IISS on the same receptor; the preparation held traces of processed forms
[6] = target: T1, VEGFR-2 (as used in the biosensor analysis) (UniProt P35968 20-764); experiment: SPR
T1 chain: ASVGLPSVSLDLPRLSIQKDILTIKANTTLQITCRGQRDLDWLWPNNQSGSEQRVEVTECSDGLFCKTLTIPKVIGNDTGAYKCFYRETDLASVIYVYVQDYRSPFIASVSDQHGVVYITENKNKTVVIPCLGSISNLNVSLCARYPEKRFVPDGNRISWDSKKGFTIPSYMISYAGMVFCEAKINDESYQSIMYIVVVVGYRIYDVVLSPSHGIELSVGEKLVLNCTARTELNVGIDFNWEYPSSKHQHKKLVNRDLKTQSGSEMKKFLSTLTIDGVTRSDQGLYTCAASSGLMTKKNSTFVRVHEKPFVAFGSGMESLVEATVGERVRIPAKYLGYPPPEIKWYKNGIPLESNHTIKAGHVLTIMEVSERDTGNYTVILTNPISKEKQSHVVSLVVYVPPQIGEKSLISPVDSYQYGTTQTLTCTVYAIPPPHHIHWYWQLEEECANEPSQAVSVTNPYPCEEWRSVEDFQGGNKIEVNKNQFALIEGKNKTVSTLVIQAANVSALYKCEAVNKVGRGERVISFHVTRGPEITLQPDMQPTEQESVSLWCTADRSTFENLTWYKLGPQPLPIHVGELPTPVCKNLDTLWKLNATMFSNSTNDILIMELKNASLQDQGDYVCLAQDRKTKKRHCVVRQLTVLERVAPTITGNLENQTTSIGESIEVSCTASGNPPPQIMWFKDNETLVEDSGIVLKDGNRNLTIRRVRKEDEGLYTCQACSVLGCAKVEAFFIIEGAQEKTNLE

[7] = target: T2, VEGFR-3 (as used in the biosensor analysis) (UniProt P35916 25-775); experiment: SPR
T2 chain: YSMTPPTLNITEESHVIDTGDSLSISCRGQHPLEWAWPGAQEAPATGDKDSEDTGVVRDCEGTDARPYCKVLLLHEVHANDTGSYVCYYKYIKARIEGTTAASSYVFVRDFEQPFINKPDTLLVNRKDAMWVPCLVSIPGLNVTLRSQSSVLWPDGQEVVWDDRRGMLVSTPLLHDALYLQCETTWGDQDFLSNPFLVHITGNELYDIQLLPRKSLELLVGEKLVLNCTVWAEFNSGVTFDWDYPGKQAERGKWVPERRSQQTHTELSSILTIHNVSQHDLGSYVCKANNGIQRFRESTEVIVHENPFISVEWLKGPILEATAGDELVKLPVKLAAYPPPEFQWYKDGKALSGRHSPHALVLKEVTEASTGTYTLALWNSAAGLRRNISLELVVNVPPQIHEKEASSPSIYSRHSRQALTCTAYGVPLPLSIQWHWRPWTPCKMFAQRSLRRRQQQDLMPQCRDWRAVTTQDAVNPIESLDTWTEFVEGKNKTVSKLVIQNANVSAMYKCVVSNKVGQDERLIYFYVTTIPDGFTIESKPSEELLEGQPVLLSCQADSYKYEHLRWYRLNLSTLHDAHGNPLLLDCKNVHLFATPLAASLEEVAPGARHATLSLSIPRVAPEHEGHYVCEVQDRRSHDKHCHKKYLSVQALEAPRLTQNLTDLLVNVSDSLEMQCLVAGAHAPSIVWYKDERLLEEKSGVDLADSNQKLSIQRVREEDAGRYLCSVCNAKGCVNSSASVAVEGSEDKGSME

VEGFR-1-Ig = target: T3, VEGFR-1-Ig (human, UniProt P17948 27-758); experiment: pull-down with receptor-Ig on protein-A sepharose from LoVo conditioned medium, Western blot
T3 construct: extracellular domain; R&D Systems is named as its source; used as a negative control; also called soluble fusion protein of the extracellular domain of human VEGFR-1 and the Fc portion of human IgG; not shown: Fc portion of human IgG
Procedure: (§1) Binding to receptor extracellular domains was examined using soluble fusion proteins consisting of the extracellular domains of human VEGFR-1, VEGFR-2 or VEGFR-3 joined to the Fe portions of human IgG (referred to as VEGFR-1-Ig (R&D Systems), VEGFR-2-Ig and VEGFR-3-Ig) (Achen et al, Proc. Natl. Acad. Sci. USA 95 548-553, 1998). Protein-A sepharose beads were incubated overnight with the conditioned media of 293EBNA cells expressing VEGFR-1-Ig, VEGFR-2-Ig or VEGFR-3-Ig to precipitate the soluble receptor constructs. The soluble receptors bound to protein-A sepharose beads were recovered by centrifugation (5 minutes, 250×g, 4° C.) and washed twice with binding buffer (0.5% (w/v) BSA, 0.02% (v/v) Tween 20, 10 μg/ml heparin in phosphate buffered saline). The soluble receptors bound to protein-A sepharose beads were then incubated with the conditioned media of LoVo cells, that had been co-transfected with pVDAPEX FULL-N-FLAG and pcDNA3:furin, for three hours at room temperature, and washed twice with binding buffer. Proteins bound to the VEGFR-2-Ig and VEGFR-3-Ig constructs were analysed by reducing SDS-PAGE and Western blotting with a biotinylated antibody against the VHD of human VEGF-D (R&D Systems), followed by Streptavidin-horse radish peroxidase conjugate (Zymed).

[8] = target: T4, extracellular domain of human VEGFR-3 (VEGFR-3-Ig) (Homo sapiens, UniProt P35916); experiment: Precipitation with soluble receptor VEGFR-3-Ig from LoVo conditioned media; type: binding; settings: conditioned media of LoVo cells co-transfected with VEGF-D-FULL-N-FLAG and furin
T4 construct: soluble fusion proteins consisting of the extracellular domains of human VEGFR-1, VEGFR-2 or VEGFR-3; made in house; host or cells: 293EBNA cells (conditioned media, captured on protein-A sepharose)
T4 sequence (P35916 25-775 limits assumed): T2 chain
Procedure: as §1

[9] = target: T5, extracellular domain of human VEGFR-2 (VEGFR-2-Ig) (Homo sapiens, UniProt P35968); experiment: Precipitation with soluble receptor VEGFR-2-Ig from LoVo conditioned media; type: binding; settings: conditioned media of LoVo cells co-transfected with VEGF-D-FULL-N-FLAG and furin
T5 construct: soluble fusion proteins consisting of the extracellular domains of human VEGFR-1, VEGFR-2 or VEGFR-3; made in house; host or cells: 293EBNA cells (conditioned media, captured on protein-A sepharose)
Procedure: as §1

VEGFR-2 = VEGFR-2 (Homo sapiens, UniProt P35968); experiment: Biosensor analysis (surface plasmon resonance) of VEGF-D ligands on VEGFR-2; type: binding; settings: 1:1 Langmurian model
Procedure: To determine the relative affinities of the ligands VEGF-DSSTS.IISS, VEGF-D-FULL-N-FLAG and mature VEGF-D (designated VEGF-DΔNΔC) for VEGFR-2 and VEGFR-3, the relative binding kinetics for these interactions was analyzed by biosensor analysis using surface plasmon resonance detection (Nice et al., Bioessays, 21:339-352, 1999). The preparations of VEGF-DSSTS.IISS and VEGF-DΔNΔC used for this analysis each consisted of one VEGF-D species devoid of other forms of VEGF-D but the preparation of VEGF-D-FULL-N-FLAG did contain traces of partially processed as well as full-length material, reflecting the capacity of wild-type full-length VEGF-D to be proteolytically processed in the 293EBNA cell cultures) from which these proteins were purified (see FIG. 10B). The binding constants for the interactions were obtained by analysis of the initial dissociation phase to obtain the kd, which was then used to constrain a global analysis of the association region of the curves, using regions of the curves where a 1:1 Langmurian model appeared to be operative.

furin = experiment: Knockdown of furin protein by shRNA (co-transfection of shRNA and furin expression constructs); type: cell-based, human
From the text: Short hairpin RNA (shRNA) primers targeting furin RNA were designed using an in-house primer design algorithm. These primer pairs form the shRNA structure that then results in functional siRNA targeting sequences 457-476 and 558-575 of open reading frame of human furin sequence (Genbank Accession No. NM_002569.2, SEQ ID NO: 21). The underlined sections are structural motifs for the formation of the small hairpin RNA structure and for the ligation of the annealed primers to the parental vector. In bold the 5′-3′ upper strand of the target sequence which is naturally a part of the primer sequence.
The above shRNA primers were generated to target the sequences 5′-GACGATGGCATCGAGAAGAA-3′ (SEQ ID NO: 19) and 5′-ACA CAC AGA TGA ATG ACA A-3′ (SEQ ID NO: 20). Primers were annealed by heating a mix of 60 pM of both primers in 50 μl annealing buffer (0.1 M potassium acetate, 2 mM magnesium acetate, 30 mM HEPES pH 7.4) at 94° C. for 4 min then 70° C. for 10 min and allowed to cool to room temperature. Annealing was verified in 3% low melting point agarose gel. The shRNA construct was then ligated into pMSCVpac mU6 which is a derivative of pMSCV (Clontech). The shRNAs were validated by assessing reduction of furin protein levels resulting from co-transfections of shRNA and furin expression constructs in 293EBNA cells or other cell lines stably overexpressing furin.

Sequence of VEGFR-2 (P35968 20-1356): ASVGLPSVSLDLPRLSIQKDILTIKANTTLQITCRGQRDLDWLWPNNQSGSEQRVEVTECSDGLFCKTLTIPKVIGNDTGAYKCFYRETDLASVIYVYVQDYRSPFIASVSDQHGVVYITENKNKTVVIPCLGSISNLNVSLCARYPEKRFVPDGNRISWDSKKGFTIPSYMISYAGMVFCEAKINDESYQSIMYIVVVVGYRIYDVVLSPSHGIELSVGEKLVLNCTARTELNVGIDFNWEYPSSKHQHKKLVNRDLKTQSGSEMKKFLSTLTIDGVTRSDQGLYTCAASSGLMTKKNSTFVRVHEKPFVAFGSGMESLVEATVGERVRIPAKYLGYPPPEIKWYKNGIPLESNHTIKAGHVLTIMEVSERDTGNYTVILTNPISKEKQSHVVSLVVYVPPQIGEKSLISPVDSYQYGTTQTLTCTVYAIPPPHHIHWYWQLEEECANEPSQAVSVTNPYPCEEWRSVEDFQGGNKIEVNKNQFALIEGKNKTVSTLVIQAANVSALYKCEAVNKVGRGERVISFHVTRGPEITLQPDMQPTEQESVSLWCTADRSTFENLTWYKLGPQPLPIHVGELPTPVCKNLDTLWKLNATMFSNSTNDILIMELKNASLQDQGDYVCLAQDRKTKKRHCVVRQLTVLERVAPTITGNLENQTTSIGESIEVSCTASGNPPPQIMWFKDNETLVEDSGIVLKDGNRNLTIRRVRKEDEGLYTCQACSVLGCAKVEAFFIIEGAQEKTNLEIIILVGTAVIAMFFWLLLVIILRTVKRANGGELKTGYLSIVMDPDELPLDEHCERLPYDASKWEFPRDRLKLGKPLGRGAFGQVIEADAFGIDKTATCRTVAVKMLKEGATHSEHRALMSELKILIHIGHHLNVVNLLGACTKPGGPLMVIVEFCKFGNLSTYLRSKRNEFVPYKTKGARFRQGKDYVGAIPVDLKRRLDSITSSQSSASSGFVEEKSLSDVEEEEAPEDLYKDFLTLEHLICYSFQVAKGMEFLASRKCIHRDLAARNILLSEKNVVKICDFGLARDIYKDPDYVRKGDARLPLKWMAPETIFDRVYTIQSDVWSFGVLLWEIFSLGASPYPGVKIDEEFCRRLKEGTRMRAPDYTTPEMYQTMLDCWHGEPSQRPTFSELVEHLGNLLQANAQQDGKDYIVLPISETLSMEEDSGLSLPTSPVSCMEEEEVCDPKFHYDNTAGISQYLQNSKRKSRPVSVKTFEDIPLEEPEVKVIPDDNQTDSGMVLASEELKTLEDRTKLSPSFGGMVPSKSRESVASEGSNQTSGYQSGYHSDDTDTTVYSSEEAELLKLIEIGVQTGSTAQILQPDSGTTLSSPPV
T3 sequence (P17948 27-758): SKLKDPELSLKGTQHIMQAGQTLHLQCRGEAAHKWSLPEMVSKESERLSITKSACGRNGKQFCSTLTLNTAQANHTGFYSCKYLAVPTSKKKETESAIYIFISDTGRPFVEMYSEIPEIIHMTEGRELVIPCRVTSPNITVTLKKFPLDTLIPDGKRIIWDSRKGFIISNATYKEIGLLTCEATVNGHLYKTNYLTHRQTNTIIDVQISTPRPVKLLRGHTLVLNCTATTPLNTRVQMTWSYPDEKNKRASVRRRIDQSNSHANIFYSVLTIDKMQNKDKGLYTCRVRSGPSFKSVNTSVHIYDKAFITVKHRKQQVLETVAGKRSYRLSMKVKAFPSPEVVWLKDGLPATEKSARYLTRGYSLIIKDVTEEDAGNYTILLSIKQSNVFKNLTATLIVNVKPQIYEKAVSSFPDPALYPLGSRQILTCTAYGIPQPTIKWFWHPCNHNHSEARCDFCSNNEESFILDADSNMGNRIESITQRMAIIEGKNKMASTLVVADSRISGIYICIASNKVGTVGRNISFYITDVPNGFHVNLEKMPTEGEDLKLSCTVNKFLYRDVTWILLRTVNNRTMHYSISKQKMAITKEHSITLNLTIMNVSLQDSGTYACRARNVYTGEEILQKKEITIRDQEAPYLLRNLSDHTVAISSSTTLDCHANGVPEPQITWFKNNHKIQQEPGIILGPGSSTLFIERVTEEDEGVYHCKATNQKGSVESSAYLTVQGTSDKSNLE

Work on “mature VEGF-D (designated VEGF-DΔNΔC) (from UniProt O43915 93-201) (ligand)” yielded a fold greater apparent affinity than VEGF-DSSTS.IISS [1] of 17000 fold and a fold greater affinity than VEGF-DSSTS.IISS [2] of 18 fold.

With “mature VEGF-D (designated VEGF-DΔNΔC) (from UniProt O43915 93-201)” the Kd [3] was 8.7 nM and the Kd [4] was 44 nM.

B1: VEGF-D-FULL-N-FLAG (full-length VEGF-D tagged with FLAG at the N-terminus) (ligand)
chain: NEHGPVKRSSQSTLERSEQQIRAASSLEELLRITHSEDWKLWRCRLRLKSFTSMDSRSASHRSTRFAATFYDIETLKVIDEEWQRTQCSPRETCVEVASELGKSTNTFFKPPCVNVFRCGGCCNEESLICMNTSTSYISKQLFEISVPLTSVPELVPVKVANHTGCKCLPTAPRHPYSIIRRSIQIPEEDRCSHSKKLCPIDMLWDSNKCKCVLQEENPLAGTEDHSHLQEPALCGPHMMFDEDRCECVCKTPCPKDLIQHPKNCSCFECKESLETCCQKHKLFHPDTCSCEDRCPFHTRPCASGKTACAKHCRFPKEKRAAQGPHSRKNP
B1 showed a fold greater affinity than VEGF-DSSTS.IISS [5] of 94 fold, a Kd [6] of 1.6 µM and a Kd [7] of 490 nM.

B2: VEGF-DSSTS.IISS (ligand)
chain: B1 chain with R62S, R65S, R181S, R182S
For B2, the Kd [6] was 150 µM and the Kd [7] was 790 nM.

B3: mature form of VEGF-D generated by furin (ligand, human, UniProt O43915 89-205, looked up)
chain: FAATFYDIETLKVIDEEWQRTQCSPRETCVEVASELGKSTNTFFKPPCVNVFRCGGCCNEESLICMNTSTSYISKQLFEISVPLTSVPELVPVKVANHTGCKCLPTAPRHPYSIIRR
notes: range 89-205; Present in conditioned medium of LoVo cells co-transfected with pVDAPEX FULL-N-FLAG and pcDNA3:furin; not purified; also called ˜21 kDa VEGF-D species; mature VEGF-D
B3: no binding (VEGFR-1-Ig).

B4: mature form of VEGF-D generated by furin: ~21 kDa VEGF-D species from LoVo cells co-transfected with VEGF-D-FULL-N-FLAG and furin expression constructs (protein)
chain: B3 chain
In the case of B4, the “binding to the extracellular domain of VEGFR-3” value [8] is reported as “binds” and the “binding to the extracellular domain of VEGFR-2” value [9] is reported as “binds”.

B5: VEGF-D-FULL-N-FLAG: full-length VEGF-D tagged with FLAG at the N-terminus; preparation contained traces of partially processed material (protein)
chain: B1 chain
modifications: left off: small tags and cut ends
notes: full-length VEGF-D tagged with FLAG at the N-terminus; preparation contained traces of partially processed material
In the case of B5, the “apparent affinity for VEGFR-2 relative to unprocessed mutant VEGF-DSSTS.IISS” value (VEGFR-2) is reported as ~94 fold.

B6: First primer pair: shRNA primer pair (SEQ ID NO:15 and 16) targeting bases 457-476 of human furin (nucleic acid)
chain 1: GACGATGGCATCGAGAAGAATTCAAGAGATTCTTCTCGATGCCATCGTCTTTTTT
chain 2: AATTAAAAAAGACGATGGCATCGAGAAGAATCTCTTGAATTCTTCTCGATGCCATCGTC
With B6 the “knockdown of furin protein expression in vitro” value (furin) was “almost complete knockdown”.

B7: Second shRNA pair: shRNA primer pair (SEQ ID NO:17 and 18) targeting bases 558-575 of human furin (nucleic acid)
chain 1: CACACAGATGAATGACAATTCAAGAGATTGTCATTCATCTGTGTGTTTTTT
chain 2: AATTAAAAAACACACAGATGAATGACAATCTCTTGAATTGTCATTCATCTGTGTG
For B7, the “knockdown of protein expression in vitro” value (furin) was 70-80%.
